Values quoted from earlier work, collected in paper PMC7990104.
Like-named read-outs stand apart in the source and are kept apart here.

Columns and labels:
[1] = target: PYL3 (Arabidopsis thaliana) (UniProt Q9SSM7)
[2] = target: PYL3 (Arabidopsis thaliana) (UniProt Q9SSM7); remark: listed apart in the source

PYL3 (from UniProt Q9SSM7)
Kd [1]: 7.76 µM | Kd [2]: 52 µM
